Tests used:
[1] = target: Herceptin containing human κ light chain subgroup 1 (Vκ1) (manufactured by Chugai Pharmaceutical Co., Ltd.); assay: ELISA; Herceptin immobilised, binding protein at 2 ug/mL, dissociation with 0.05 M citric acid pH 2.7 for 2 min, absorbance ratio to wells without dissociation
[2] = target: immunoglobulin immobilized on IgG Sepharose 6 Fast Flow (manufactured by Cytiva); assay: IgG Sepharose 6 Fast Flow column; linear gradient 0.1 M citrate pH 6.5 to pH 2.2; pH at the peak of the eluted binding protein

- Elution rate [%] [1]: 76%
- Elution pH [2]: 2.9 pH
Substance: FpL_C3 (wild-type), immunoglobulin-binding domain C3 of protein L (FpL) of Finegoldia magna

Source: patent US20250002543A1
